Test results as given in the Human Domainome abundance scans (Beltran et al. 2025).
± gives the uncertainty stated by the source.

B1: Calcium-binding protein 2, residues 155 to 219; numbered along this chain, Q9NPB3 (parent)
chain: RELRDAFREFDTNGDGRISVGELRAALKALLGERLSQREVDEILQDVDLNGDGLVDFEEFVRMMS

Variants of: B1
Test: abundance fitness (aPCA) (normalised: wild type 0, dead -1); higher = more abundant; growth selection in yeast, the domain comes from the species named
Details: Homo sapiens

Question: For RELRDAFREFDTNGDGRISVGELRAALKALLGERLSQREVDEYLQDVDLNGDGLVDFEEFVRMMS, which abundance fitness is on record?
Answer: -0.345 ± 0.33

Question: With RELRDAFREFDTNGDGRISVGELRAALKALLGERLSQREVDEHLQDVDLNGDGLVDFEEFVRMMS as the variant, how does the abundance fitness read?
Answer: 0.161 ± 0.17

Question: With RELRDAFREFDTNGDGRISVGELRAALKALLGERLSQREVDEFLQDVDLNGDGLVDFEEFVRMMS as the variant, how does the abundance fitness read?
Answer: -0.282 ± 0.29

Question: For RELRDAFREFDTNGDGRISVGELRAALKALLGERLSQREVDERLQDVDLNGDGLVDFEEFVRMMS, which abundance fitness is on record?
Answer: 0.03 ± 0.065

Question: For RELRDAFREFDTNGDGRISVGELRAALKALLGERLSQREVDETLQDVDLNGDGLVDFEEFVRMMS, which abundance fitness is on record?
Answer: 0.092 ± 0.084

Question: For RELRDAFREFDTNGDGRISVGELRAALKALLGERLSQREVDEQLQDVDLNGDGLVDFEEFVRMMS, which abundance fitness is on record?
Answer: 0.099 ± 0.11

Question: With RELRDAFREFDTNGDGRISVGELRAALKALLGERLSQREVDEWLQDVDLNGDGLVDFEEFVRMMS as the variant, how does the abundance fitness read?
Answer: -0.142 ± 0.056

Question: For RELRDAFREFDTNGDGRISVGELRAALKALLGERLSQREVDEGLQDVDLNGDGLVDFEEFVRMMS, which abundance fitness is on record?
Answer: 0.123 ± 0.069

Question: Which abundance fitness does the source give for RELRDAFREFDTNGDGRISVGELRAALKALLGERLSQREVDECLQDVDLNGDGLVDFEEFVRMMS here?
Answer: -0.009 ± 0.14

Question: With RELRDAFREFDTNGDGRISVGELRAALKALLGERLSQREVDENLQDVDLNGDGLVDFEEFVRMMS as the variant, how does the abundance fitness read?
Answer: 0.053 ± 0.18

Question: Which abundance fitness does the source give for RELRDAFREFDTNGDGRISVGELRAALKALLGERLSQREVDEELQDVDLNGDGLVDFEEFVRMMS here?
Answer: 0.038 ± 0.12

Question: With RELRDAFREFDTNGDGRISVGELRAALKALLGERLSQREVDEALQDVDLNGDGLVDFEEFVRMMS as the variant, how does the abundance fitness read?
Answer: 0.254 ± 0.091

Question: For RELRDAFREFDTNGDGRISVGELRAALKALLGERLSQREVDEVLQDVDLNGDGLVDFEEFVRMMS, which abundance fitness is on record?
Answer: 0.01 ± 0.084

Question: For RELRDAFREFDTNGDGRISVGELRAALKALLGERLSQREVDEPLQDVDLNGDGLVDFEEFVRMMS, which abundance fitness is on record?
Answer: -0.032 ± 0.12

Question: Which abundance fitness does the source give for RELRDAFREFDTNGDGRISVGELRAALKALLGERLSQREVDCILQDVDLNGDGLVDFEEFVRMMS here?
Answer: -0.074 ± 0.2

Question: Which abundance fitness does the source give for RELRDAFREFDTNGDGRISVGELRAALKALLGERLSQREVDKILQDVDLNGDGLVDFEEFVRMMS here?
Answer: -0.178 ± 0.15

Question: With RELRDAFREFDTNGDGRISVGELRAALKALLGERLSQREVDAILQDVDLNGDGLVDFEEFVRMMS as the variant, how does the abundance fitness read?
Answer: -0.183 ± 0.068

Question: With RELRDAFREFDTNGDGRISVGELRAALKALLGERLSQREVDQILQDVDLNGDGLVDFEEFVRMMS as the variant, how does the abundance fitness read?
Answer: -0.272 ± 0.1

Question: With RELRDAFREFDTNGDGRISVGELRAALKALLGERLSQREVDVILQDVDLNGDGLVDFEEFVRMMS as the variant, how does the abundance fitness read?
Answer: -0.108 ± 0.088

Question: With RELRDAFREFDTNGDGRISVGELRAALKALLGERLSQREVDLILQDVDLNGDGLVDFEEFVRMMS as the variant, how does the abundance fitness read?
Answer: -0.175 ± 0.066

Question: Which abundance fitness does the source give for RELRDAFREFDTNGDGRISVGELRAALKALLGERLSQREVDSILQDVDLNGDGLVDFEEFVRMMS here?
Answer: -0.136 ± 0.077

Question: With RELRDAFREFDTNGDGRISVGELRAALKALLGERLSQREVDDILQDVDLNGDGLVDFEEFVRMMS as the variant, how does the abundance fitness read?
Answer: -0.166 ± 0.12

Question: Which abundance fitness does the source give for RELRDAFREFDTNGDGRISVGELRAALKALLGERLSQREVDRILQDVDLNGDGLVDFEEFVRMMS here?
Answer: -0.08 ± 0.089

Question: With RELRDAFREFDTNGDGRISVGELRAALKALLGERLSQREVDIILQDVDLNGDGLVDFEEFVRMMS as the variant, how does the abundance fitness read?
Answer: -0.204 ± 0.11

Question: Which abundance fitness does the source give for RELRDAFREFDTNGDGRISVGELRAALKALLGERLSQREVDYILQDVDLNGDGLVDFEEFVRMMS here?
Answer: -0.309 ± 0.29

Question: Which abundance fitness does the source give for RELRDAFREFDTNGDGRISVGELRAALKALLGERLSQREVDPILQDVDLNGDGLVDFEEFVRMMS here?
Answer: -0.301 ± 0.098

Question: With RELRDAFREFDTNGDGRISVGELRAALKALLGERLSQREVDGILQDVDLNGDGLVDFEEFVRMMS as the variant, how does the abundance fitness read?
Answer: -0.081 ± 0.052

Question: Which abundance fitness does the source give for RELRDAFREFDTNGDGRISVGELRAALKALLGERLSQREVDWILQDVDLNGDGLVDFEEFVRMMS here?
Answer: -0.183 ± 0.087

Question: For RELRDAFREFDTNGDGRISVGELRAALKALLGERLSQREVDMILQDVDLNGDGLVDFEEFVRMMS, which abundance fitness is on record?
Answer: -0.143 ± 0.14

Question: For RELRDAFREFDTNGDGRISVGELRAALKALLGERLSQREVDEIIQDVDLNGDGLVDFEEFVRMMS, which abundance fitness is on record?
Answer: 0.072 ± 0.15

Question: With RELRDAFREFDTNGDGRISVGELRAALKALLGERLSQREVDEIRQDVDLNGDGLVDFEEFVRMMS as the variant, how does the abundance fitness read?
Answer: -0.178 ± 0.09

Question: For RELRDAFREFDTNGDGRISVGELRAALKALLGERLSQREVDEIHQDVDLNGDGLVDFEEFVRMMS, which abundance fitness is on record?
Answer: 0.097 ± 0.3

Question: With RELRDAFREFDTNGDGRISVGELRAALKALLGERLSQREVDEIMQDVDLNGDGLVDFEEFVRMMS as the variant, how does the abundance fitness read?
Answer: -0.219 ± 0.21

Question: For RELRDAFREFDTNGDGRISVGELRAALKALLGERLSQREVDEIAQDVDLNGDGLVDFEEFVRMMS, which abundance fitness is on record?
Answer: 0.116 ± 0.067

Question: Which abundance fitness does the source give for RELRDAFREFDTNGDGRISVGELRAALKALLGERLSQREVDEIDQDVDLNGDGLVDFEEFVRMMS here?
Answer: -0.064 ± 0.14

Question: With RELRDAFREFDTNGDGRISVGELRAALKALLGERLSQREVDEITQDVDLNGDGLVDFEEFVRMMS as the variant, how does the abundance fitness read?
Answer: 0 ± 0.12

Question: Which abundance fitness does the source give for RELRDAFREFDTNGDGRISVGELRAALKALLGERLSQREVDEIGQDVDLNGDGLVDFEEFVRMMS here?
Answer: -0.01 ± 0.071

Question: With RELRDAFREFDTNGDGRISVGELRAALKALLGERLSQREVDEIPQDVDLNGDGLVDFEEFVRMMS as the variant, how does the abundance fitness read?
Answer: -0.323 ± 0.17

Question: Which abundance fitness does the source give for RELRDAFREFDTNGDGRISVGELRAALKALLGERLSQREVDEIWQDVDLNGDGLVDFEEFVRMMS here?
Answer: -0.496 ± 0.25

Question: With RELRDAFREFDTNGDGRISVGELRAALKALLGERLSQREVDEIKQDVDLNGDGLVDFEEFVRMMS as the variant, how does the abundance fitness read?
Answer: 0.055 ± 0.14

Question: Which abundance fitness does the source give for RELRDAFREFDTNGDGRISVGELRAALKALLGERLSQREVDEIVQDVDLNGDGLVDFEEFVRMMS here?
Answer: 0 ± 0.087

Question: Which abundance fitness does the source give for RELRDAFREFDTNGDGRISVGELRAALKALLGERLSQREVDEIEQDVDLNGDGLVDFEEFVRMMS here?
Answer: -0.123 ± 0.14
